Changes are numbered by the printed parent chain.
How the values were obtained:
human NGF [1] = molecular target: T1, human NGF (human, UniProt P01138 122-241); assay: cell-based or functional assay
T1 construct: also called hNGF; human nerve growth factor

rat NGF (rat) = rat NGF (rat) (UniProt P25427); assay: cell-based or functional assay
human NGF [2] = molecular target: T1, human NGF; assay: SPR (BIAcore), Fab over immobilized human NGF
human NGF [3] = molecular target: T1, human NGF; assay: SPR (BIAcore), Fab over immobilized human NGF; remark: listed apart in the source
human NGF [4] = molecular target: T1, human NGF; assay: SPR (BIAcore), Fab over CM5 chip with 100 RU of immobilized human NGF
human NGF [5] = molecular target: T1, human NGF; assay: SPR (BIAcore), human NGF on chip; KD calculated using kon 4e4 M-1s-1
human NGF [6] = molecular target: T1, human NGF; assay: SPR (BIAcore) screening, human NGF on chip; KD calculated using kon 4e4 M-1s-1
Method: Affinities of anti-NGF Fabs and monoclonal antibodies were determined using the BIAcore3000™ surface plasmon resonance (SPR) system (BIAcore, INC, Piscaway N.J.). CM5 chips were activated with N-ethyl-N′-(3-dimethylaminopropyl)-carbodiinide hydrochloride (EDC) and N-hydroxysuccinimide (NHS) according to the supplier's instructions. Human NGF was diluted into 10 mM sodium acetate pH 4.0 and injected over the activated chip at a concentration of 0.005 mg/mL. Using variable flow time across the individual chip channels, two ranges of antigen density were achieved: 100-200 response units (RU) for detailed kinetic studies and 500-600 RU for screening assays. The chip was blocked with ethanolamine. […] HBS-EP buffer (0.01M HEPES, pH 7.4, 0.15 NaCl, 3 mM EDTA, 0.005% Surfactant […]) was used as running buffer for all the BIAcore assays.

T1 sequence (P01138 122-241 limits assumed): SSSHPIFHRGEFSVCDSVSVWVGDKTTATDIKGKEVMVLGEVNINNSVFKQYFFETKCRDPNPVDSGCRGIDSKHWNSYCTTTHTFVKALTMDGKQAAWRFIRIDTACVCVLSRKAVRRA
Chain of rat NGF (rat) (P25427 122-241 limits assumed): as the sequence (P01138 122-241 limits assumed) above, with S3T, I6V, R9M, M37T, D60A, D65E, M92T, G94D, V117A, A120G counted along it

mouse antibody 911 (Fab)
IC50 (in the presence of 1.5 pM NGF), human NGF-dependent survival of mouse E13.5 trigeminal neurons (human NGF [1]): 63.5 pM
IC50 (in the presence of 15 pM NGF), human NGF-dependent survival of mouse E13.5 trigeminal neurons (human NGF [1]): 322 pM
IC50 (1.5 pM NGF), rat NGF-dependent survival of mouse E13.5 trigeminal neurons (rat NGF (rat)): 34.6 pM
IC50 (15 pM NGF), rat NGF-dependent survival of mouse E13.5 trigeminal neurons (rat NGF (rat)): 161 pM
Kd (human NGF [2]): 3.7 nM
koff (human NGF [2]): 9e-05 s⁻¹
kon (human NGF [2]): 22000 M⁻¹ s⁻¹
Kd (human NGF [3]): 10 nM
koff (human NGF [4]): 8.4e-05 s⁻¹

B1: H19-L129 (Fab, V domains shown)
VH: QVQLQESGPGLVKPSETLSLTCTVSGFSLIGYDLNWIRQPPGKGLEWIGIIWGDGTTDYNSAVKSRVTISKDTSKNQFSLKLSSVTAADTAVYYCARGGYYYGTSYYFDYWGQGTLVTVS
VL: DIQMTQSPSSLSASVGDRVTITCRASQSISNNLNWYQQKPGKAPKLLIYYTSRFHSGVPSRFSGSGSGTDFTFTISSLQPEDIATYYCQQSKTLPYTFGQGTKLEIKR
notes: Combined clone with matured CDRs H1, H2, L1, L2 and grafted H3 and L3; Fab; human Ck, human IgG2a CH1, his tag; also called H19-L129 Fab; Fab H19-L129
Kd (human NGF [5]): 3.5 nM

B2: L_S91E; L_K92R; H_Y101W; H_G103A (8L2-6D5 template) (Fab, V domains shown)
VH: B1 VH with L34I, I50M, V63L, Y101W, G103A
VL: B1 VL with S28D, N32H, T51I, S91E, K92R
notes: Human Ck, human IgG2a CH1, his tag
Kd (human NGF [6]): 25 nM

— patent US20070212357A1 (published 2007)
